Reference: publication PMC8604303

Assays:
[1] = target: C9 TMH-1 lock mutant (C9_(TMH-1 lock), F262C V405C) (human) (UniProt P02748); test: SDS-PAGE of SDS-stable polymeric-C9, in-gel Cy5 fluorescence; as a3 but 20 nM Cy5-labelled C9 incubated with the C5b-8 labelled bacteria in 10 mM DTT
[2] = target: C9 TMH-1 lock mutant (C9_(TMH-1 lock), F262C V405C) (human) (UniProt P02748)
[3] = target: C5b-8 (MAC precursor of C5b, C6, C7 and C8) assembled on E. coli (human) (UniProt P01031); test: flow cytometry on cells; as a1 but Cy5-labelled C9 added with 10 mM DTT (the methods give 20 nM C8 added 15 min before C9 at RT)
[4] = target: C9 TMH-1 lock mutant (C9_(TMH-1 lock), F262C V405C) (human) (UniProt P02748); remark: listed apart in the source
[5] = target: C5b-8 (MAC precursor of C5b, C6, C7 and C8) assembled on E. coli (human) (UniProt P01031); test: flow cytometry on cells; E. coli MG1655 labelled with C5b-7, washed, 10 nM C8 and a concentration range of Cy5-labelled C9 for 30 min; geoMFI
[6] = target: C5b-8 (MAC precursor of C5b, C6, C7 and C8) assembled on E. coli (human) (UniProt P01031); test: flow cytometry on cells; complement-sensitive E. coli (MG1655, BW25113, MC1061, 547563.1, CGSC7740 wildtype) in 3% C9-depleted serum with 25 nM Cy5-labelled C9 for 30 min at 37 C; Syto9 trigger; MFI
[7] = target: C5b-8 (MAC precursor of C5b, C6, C7 and C8) assembled on E. coli (human) (UniProt P01031); test: flow cytometry on cells; E. coli MG1655 labelled with C5b-7 (10% C8-depleted serum, 30 min), washed, 10 nM C8 for 15 min, then 20 nM Cy5-labelled C9 for 30 min, no DTT; RPMI + 0.05% HSA; geoMFI
[8] = target: C5b-8 (MAC precursor of C5b, C6, C7 and C8) assembled on E. coli (human) (UniProt P01031); test: flow cytometry on cells; complement-resistant E. coli that express LPS O-Ag (552059.1, 552060.1, 567705.1, CGSC7740 wbbL+) in 3% C9-depleted serum with 25 nM Cy5-labelled C9 (up to 10-fold more on 552059.1) for 30 min at 37 C; MFI

Sequence of wildtype C9 (C9wt) (P02748 22-559): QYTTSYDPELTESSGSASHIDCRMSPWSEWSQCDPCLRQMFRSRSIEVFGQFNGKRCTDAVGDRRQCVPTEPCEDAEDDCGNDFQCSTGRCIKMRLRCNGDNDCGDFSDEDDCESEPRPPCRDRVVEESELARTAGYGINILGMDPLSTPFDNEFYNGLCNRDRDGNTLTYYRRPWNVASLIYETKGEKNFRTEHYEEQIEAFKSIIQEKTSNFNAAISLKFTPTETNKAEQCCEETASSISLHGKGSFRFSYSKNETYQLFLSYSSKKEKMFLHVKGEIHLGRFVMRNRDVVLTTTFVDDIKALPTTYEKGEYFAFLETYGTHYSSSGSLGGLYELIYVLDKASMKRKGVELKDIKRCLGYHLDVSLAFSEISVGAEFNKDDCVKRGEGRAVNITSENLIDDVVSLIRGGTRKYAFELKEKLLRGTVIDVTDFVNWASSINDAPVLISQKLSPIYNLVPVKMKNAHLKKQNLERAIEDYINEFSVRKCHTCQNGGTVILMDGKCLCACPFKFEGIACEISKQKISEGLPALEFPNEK

Substance	fold lower polymeric-C9 detection against C9wt with DTT [1]	bacterial viability (CFU) of E. coli MG1655 in 3% C9-depleted serum with 25 nM C9 after 30 min, against C9wt [2]	outer membrane damage (DiOC2) and inner membrane damage (Sytox) of E. coli MG1655 in 3% C9-depleted serum with 25 nM C9, delay against C9wt [2]	fold binding with DTT against C9 (TMH-1 lock) without DTT [3]	fold lower binding against C9wt with DTT [3]	bacterial viability (CFU) of C5b-8 labelled E. coli MG1655 with 100 nM C9, decrease compared to C5b-8 alone [4]	fold binding against C9 (TMH-1 lock) [5]	fold binding against C9 (TMH-1 lock) [6]	fold binding against C9 (TMH-1 lock), on CGSC7740 wildtype [6]	fold binding against C9 (TMH-1 lock) [7]	fold binding against C9 (TMH-1 lock), on 552059.1 with up to 10-fold more C9 [8]	fold binding against C9 (TMH-1 lock), on CGSC7740 wbbL+ [8]
C9 TMH-1 lock mutant (C9_(TMH-1 lock), F262C V405C) (from UniProt P02748 22-559) (natural protein)	2 to 3 fold	1000 fold	30 min	3 fold	2 to 3 fold	10 fold	–	–	–	–	–	–
wildtype C9 (C9wt) (from UniProt P02748 22-559) (natural protein)	–	–	–	–	–	–	< 10 fold	5 to 15 fold	12 fold	10 fold	2 to 3 fold	2.5 fold
